Biological target: HLA A*0201 (soluble, the MHC part of the HLA A*0201-peptide complexes)
Assay: SPR

t½ of the HLA A*0201-peptide complex: 8 h
Substance: […] peptide (Melan A 26-35)

Source: paper PMC3481325
